Results taken from patent US7888089B2, “eNOS mutations useful for gene therapy and therapeutic screening” (Yale University, priority 1999, dated 2011).

B1: Wild type: Wild type bovine endothelial nitric oxide synthase (eNOS) (protein, UniProt P29473 2-1205, looked up)
Nitric oxide synthase 3: GNLKSVGQEPGPPCGLGLGLGLGLCGKQGPASPAPEPSRAPAPATPHAPDHSPAPNSPTLTRPPEGPKFPRVKNWELGSITYDTLCAQSQQDGPCTPRCCLGSLVLPRKLQTRPSPGPPPAEQLLSQARDFINQYYSSIKRSGSQAHEERLQEVEAEVASTGTYHLRESELVFGAKQAWRNAPRCVGRIQWGKLQVFDARDCSSAQEMFTYICNHIKYATNRGNLRSAITVFPQRAPGRGDFRIWNSQLVRYAGYRQQDGSVRGDPANVEITELCIQHGWTPGNGRFDVLPLLLQAPDEAPELFVLPPELVLEVPLEHPTLEWFAALGLRWYALPAVSNMLLEIGGLEFSAAPFSGWYMSTEIGTRNLCDPHRYNILEDVAVCMDLDTRTTSSLWKDKAAVEINLAVLHSFQLAKVTIVDHHAATVSFMKHLDNEQKARGGCPADWAWIVPPISGSLTPVFHQEMVNYILSPAFRYQPDPWKGSATKGAGITRKKTFKEVANAVKISASLMGTLMAKRVKATILYASETGRAQSYAQQLGRLFRKAFDPRVLCMDEYDVVSLEHEALVLVVTSTFGNGDPPENGESFAAALMEMSGPYNSSPRPEQHKSYKIRFNSVSCSDPLVSSWRRKRKESSNTDSAGALGTLRFCVFGLGSRAYPHFCAFARAVDTRLEELGGERLLQLGQGDELCGQEEAFRGWAKAAFQASCETFCVGEEAKAAAQDIFSPKRSWKRQRYRLSTQAEGLQLLPGLIHVHRRKMFQATVLSVENLQSSKSTRATILVRLDTAGQEGLQYQPGDHIGICPPNRPGLVEALLSRVEDPPPPTESVAVEQLEKGSPGGPPPSWVRDPRLPPCTLRQALTFFLDITSPPSPRLLRLLSTLAEEPSEQQELETLSQDPRRYEEWKWFRCPTLLEVLEQFPSVALPAPLLLTQLPLLQPRYYSVSSAPNAHPGEVHLTVAVLAYRTQDGLGPLHYGVCSTWLSQLKTGDPVPCFIRGAPSFRLPPDPYVPCILVGPGTGIAPFRGFWQERLHDIESKGLQPAPMTLVFGCRCSQLDHLYRDEVQDAQERGVFGRVLTAFSREPDSPKTYVQDILRTELAAEVHRVLCLERGHMFVCGDVTMATSVLQTVQRILATEGDMELDEAGDVIGVLRDQQRYHEDIFGLTLRTQEVTSRIRTQSFSLQERHLRGAVPWAFDPPGPDTPGP
B2: S1179D: bovine eNOS with serine 1179 mutated to aspartic acid (protein)
chain: GNLKSVGQEPGPPCGLGLGLGLGLCGKQGPASPAPEPSRAPAPATPHAPDHSPAPNSPTLTRPPEGPKFPRVKNWELGSITYDTLCAQSQQDGPCTPRCCLGSLVLPRKLQTRPSPGPPPAEQLLSQARDFINQYYSSIKRSGSQAHEERLQEVEAEVASTGTYHLRESELVFGAKQAWRNAPRCVGRIQWGKLQVFDARDCSSAQEMFTYICNHIKYATNRGNLRSAITVFPQRAPGRGDFRIWNSQLVRYAGYRQQDGSVRGDPANVEITELCIQHGWTPGNGRFDVLPLLLQAPDEAPELFVLPPELVLEVPLEHPTLEWFAALGLRWYALPAVSNMLLEIGGLEFSAAPFSGWYMSTEIGTRNLCDPHRYNILEDVAVCMDLDTRTTSSLWKDKAAVEINLAVLHSFQLAKVTIVDHHAATVSFMKHLDNEQKARGGCPADWAWIVPPISGSLTPVFHQEMVNYILSPAFRYQPDPWKGSATKGAGITRKKTFKEVANAVKISASLMGTLMAKRVKATILYASETGRAQSYAQQLGRLFRKAFDPRVLCMDEYDVVSLEHEALVLVVTSTFGNGDPPENGESFAAALMEMSGPYNSSPRPEQHKSYKIRFNSVSCSDPLVSSWRRKRKESSNTDSAGALGTLRFCVFGLGSRAYPHFCAFARAVDTRLEELGGERLLQLGQGDELCGQEEAFRGWAKAAFQASCETFCVGEEAKAAAQDIFSPKRSWKRQRYRLSTQAEGLQLLPGLIHVHRRKMFQATVLSVENLQSSKSTRATILVRLDTAGQEGLQYQPGDHIGICPPNRPGLVEALLSRVEDPPPPTESVAVEQLEKGSPGGPPPSWVRDPRLPPCTLRQALTFFLDITSPPSPRLLRLLSTLAEEPSEQQELETLSQDPRRYEEWKWFRCPTLLEVLEQFPSVALPAPLLLTQLPLLQPRYYSVSSAPNAHPGEVHLTVAVLAYRTQDGLGPLHYGVCSTWLSQLKTGDPVPCFIRGAPSFRLPPDPYVPCILVGPGTGIAPFRGFWQERLHDIESKGLQPAPMTLVFGCRCSQLDHLYRDEVQDAQERGVFGRVLTAFSREPDSPKTYVQDILRTELAAEVHRVLCLERGHMFVCGDVTMATSVLQTVQRILATEGDMELDEAGDVIGVLRDQQRYHEDIFGLTLRTQEVTSRIRTQDFSLQERHLRGAVPWAFDPPGPDTPGP

What was measured:
[1] = test system: COS cells; test: cGMP accumulation in transfected COS cells as bioassay for NO; format: cell-based; conditions: eNOS alone or eNOS with Akt construct
Description: (§1) Cell Transfections: The bovine eNOS, human iNOS, rat nNOS cDNAs in pcDNA3 and HA-tagged wild-type Akt, Akt (K179M) or myr-Akt in pCMV6 were generated by standard cloning methods. The myr-nNOS in pcDNA3 was generated by PCR, incorporating a new amino terminus containing the eNOS N-myristoylation consensus site (MGNLKSVG, SEQ ID NO:1) fused in frame to the second amino acid of the nNOS coding sequence. […] Mutation of the putative Akt phosphorylation sites in eNOS were generated using the Quick Change site-directed mutagenesis kit (Stratagene) according to the manufacturers instructions. All mutants were verified by DNA sequencing. COS-7 cells were plated (100 mm dish) and transfected with the NOS (7.5-30 mg) and Akt (1 mg) plasmids using calcium phosphate. To balance all transfections, the expression vector for β-galactosidase cDNA was used. Twenty-four to forty-eight hours after transfection, the expression of appropriate proteins (40-80 mg) were confirmed by Western blot analysis using eNOS mAb (9D10, Zymed), HA mAb (12CA5, Boehringer Mannheim), iNOS pAb (Zymed Laboratories) or nNOS mAb (Zymed Laboratories).
NO release from transfected COS cells: 24-48 hrs after transfection, media was processed for the measurement of nitrite (NO2^−), the stable breakdown product of NO in aqueous solution, by NO specific chemiluminescence as described (Sessa et al., 1995). […]

[2] = test system: Akt; test: In vitro kinase reaction with Akt immunoprecipitated from COS cells; format: biochemical; conditions: HA-Akt immunoprecipitate, n=3
[3] = test system: Akt; test: 32P phosphorylation of eNOS in intact transfected COS cells; format: cell-based; conditions: intact COS cells, 32P-orthophosphate
Experimental: Phosphorylation studies in vivo and in vitro: For in vivo phosphorylation studies, COS cells were transfected with the cDNAs for wild-type or S635, 1179A eNOS and HA-Akt overnight. 36 hrs after transfection, cells were placed into dialyzed serum replete, phosphate-free Dulbecco's minimum essential medium supplemented with 80 μCi/ml of ^32P orthophosphoric acid for 3 hr. Some cells were pretreated with wortmannin (500 nM) in the phosphate-free media for 1 hr and during the labeling.

[4] = DCIP reduction by purified eNOS; format: biochemical; conditions: FIG. 6B
Experimental: Assays for Reductase Activity—NADPH-cytochrome c reductase activity and 2,6-dichlorophenolindophenol (DCIP) reduction were measured as a change in absorbance at 550 nm as described previously by Martasek et al. (1999) and Masters et al. (1967) using an extinction coefficient of 0.021 μM^−1 cm^−1 for both cytochrome c and DCIP. Briefly, a reaction mixture (1 ml) contained either cytochrome c (90 μM); DCIP (36 μM), HEPES buffer (50 mM) at pH 7.6, NaCl (250 mM), NADPH (100 μM), calmodulin (120 nM), and CaCl2 (200 μM); or other substances as indicated. The reaction was monitored for 60 s (at 23° C.) after the addition of eNOS. When inactivation of reductase activity was determined by the addition of EGTA (200-800 μM), chelator was added 1 min after initiation of the reaction and monitored for an additional 1 min. The reaction contained HEPES buffer (50 mM) at pH 7.6, CaM (120 nM), and CaCl2 (200 μM) and was initiated with NADPH (100 μM). No NaCl was added in experiments that examined EGTA inactivation of eNOS to mimic the conditions used in the hemoglobin capture experiments. […] Determination of the calcium EC50 for eNOS was performed as described above for the hemoglobin capture assay.

[5] = test system: COS-7 cells; test: NO release (NO2−, chemiluminescence) from transfected COS cells; format: cell-based; conditions: NOS construct co-transfected with Akt
Description: as §1
NO release from transfected COS cells: 24-48 hrs after transfection, media was processed for the measurement of nitrite (NO2^−), the stable breakdown product of NO in aqueous solution, by NO specific chemiluminescence as described (Sessa et al., 1995). Media was deproteinized and samples containing NO2^− were refluxed in glacial acetic acid containing sodium iodide. […] In all experiments, NO2^− release was inhibitable by a NOS inhibitor. In addition, NO2^−-release from cells transfected with the β-galactosidase cDNA was subtracted to control for background levels of NO2^− found in serum or media. In some experiments, cGMP accumulation in COS was used as a bioassay for the production of NO as described.

| Molecule | cGMP accumulation [1] | phosphorylation of substrate by active Akt [2] | enhancement in phosphorylation on co-expression of Akt relative to non-stimulated cells [3] | DCIP reduction activity compared with wild type eNOS [4] | Akt dependent NO release / activation of NOS construct [5] |
| --- | --- | --- | --- | --- | --- |
| B1 | 5.5±0.8 pmol cGMP/mg protein | 115.4±3.8 pmol of ATP/nmol substrate | 2 fold | – | – |
| B2 | – | – | – | significant increase in activity | partially mimics the activation state induced by Akt |
